Laboratory results: US20100183649A1 (ACADEMIA SINICA, published 2010)

B1: FMDV capsid protein VP1 (other)
chain: TTSAGESADPVTATVENYGGETQVQRRQHTDIAFILDRFVKVKPKEQVNVLDLMQIPAHTLVGALLRTATYYFSDLELAVKHEGDLTWVPNGAPETALDNTTNPTAYHKEPLTRLALPYTAPHRVLATVYNGSSKYGDTSTNNVRGDLQVLAQKAERTLPTSFNFGAIKATRVTELLYRMKRAETYCPRPLLAIQPSDARHKQRIVAPAKQLL
B2: FMDV capsid protein VP3 (other)
chain: GIFPVACSDGYGGLVTTDPKTADPVYGKVFNPPRNLLPGRFTNLLDVAEACPTFLHFDGDVPYVTTKTDSDRVLAQFDLSLAAKHMSNTFLAGLAQYYTQYSGTINLHFMFTGPTDAKARYMVAYAPPGMEPPKTPEAAAHCIHAEWDTGLNSKFTFSIPYLSAADYAYTASDVAETTNVQGWVCLFQITHGKADGDALVVLASAGKDFDLRLPVDARTQ

Tests used:
FMDV capsid protein VP3 = target: B2; assay: size exclusion HPLC of the U1P1 protease-treated product
FMDV capsid protein VP0 = FMDV capsid protein VP0 (foot-and-mouth disease virus, UniProt Q6PMV1 218-504); assay: as above

Binder	binding result (FMDV capsid protein VP3)	binding result (FMDV capsid protein VP0)
B1	binds	binds
B2	–	binds
